Data as given in the supplement of paper PMC10567573.

B1: ESRRA (parent)
chain: LGVAQRSLPLQDELAFAEDLVLDE

Variants of: B1
Assay: protein stability index of a GFP-peptide fusion (GPS, HEK-293T) (PSI 1-6); higher = more stable
Details: c terminus: a fixed tail appended
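Further: lentivirally expressed fusions sorted by FACS into six bins by GFP to DsRed ratio, PSI derived from sequencing read proportions per bin multiplied by bin number.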

Protein stability index of substitutions, site by site:
A4: V 2.39; M 2.58; S 2.81; I 1.59; C 2.02; L 2.42; R 1.86; P 3.1; E 3.45; N 2.94; G 2.41; D 2.84; T 2.43; W 2.3; Q 3.33; F 2.23; K 2.58; Y 2.1; H 2.21
L10: Q 5.45; N 5.12; K 5.21; I 4.7; A 5.58; F 4.97; C 5.41; W 4.84; P 4.33; D 5.42; T 5.47; E 4.36; G 5.43; V 4.64; M 3.54; Y 5.12; S 5.19; R 5.44; H 5.26
G2: T 2.91; P 3.92; Q 2.98; M 2.36; D 3.02; I 1.89; R 1.93; L 2.21; E 3.17; C 2.69; H 2.78; F 1.87; V 2.34; A 3.14; S 2.63; N 3.08; W 1.79; Y 1.89; K 1.98
E13: L 2.5; W 3.24; Q 2.99; I 2.42; G 4.81; R 4.62; V 2.64; H 4.44; T 3.92; Y 3.5; K 4.95; N 5.15; S 4.45; P 4.71; M 3.16; D 2.5; F 3.12; C 3.38; A 1.75
A17: Q 5.4; H 4.95; S 4.49; C 4.9; P 5.19; D 4.99; K 5.25; W 2.02; R 4.83; M 4.88; Y 3.39; E 5.09; T 3.8; G 4.76; V 4.77; N 5.35; I 3.96; F 4.19; L 4.3
E18: H 4.6; M 3.84; G 5; K 4.58; C 4.09; F 3.3; A 4.25; N 4.9; L 2.89; D 5.17; I 2.56
D12: V 2.22; C 1.92; L 1.88; W 2.04; T 1.86; K 2.98; S 2.01; Y 1.8; P 4.59; E 2.3; Q 1.7; G 3.59; F 1.46; I 1.74; M 2.37; H 2.17; N 3.19; A 3.13; R 1.95
S7: E 2.57; A 3.38; M 2.84; C 2.4; H 2.29; V 2.94; N 2.46; P 3.14; Y 2.37; D 3.25; T 3.34; F 2.32; R 2.52; L 2.58; I 2.98; G 2.79; K 3.13; Q 3.18; W 1.78
L14: Y 4.81; A 5.24; Q 5.27; T 5.5; V 4.92; P 5.38; M 2.13; S 5.66; R 5.33; I 5.15; C 5.43; H 5.43; G 5.46; D 5.68; E 5.5; K 5.15; W 4.37; N 5.42; F 5.55
A15: N 3.85; G 4.74; L 3.81; T 3.26; C 3.93; Y 4.29; P 5.28; R 1.82; Q 3.65; I 4.41; V 4.41; M 3.49; E 4.74; K 2.3; S 3.68; D 4.77; H 4.39; W 3.22; F 4.42
P9: T 4.04; I 2.85; E 3.45; M 3.53; L 3.89; C 4.38; W 3.21; F 3.54; S 3.49; N 4.18; Q 4.66; K 3.07; H 3.69; G 2.64; R 3.95; D 3.17; V 4.05; Y 3.66; A 4.37
V3: T 2.92; R 2.58; Q 2.84; E 4.36; W 2.82; F 2.31; Y 2.16; P 2.73; A 2.92; H 2.76; C 2.86; M 2.12; L 2.61; N 3.1; G 3.15; S 2.64; D 3.69; I 2.21; K 2.39
F16: R 3.03; P 5.83; Y 2.93; W 2.45; M 2.81; V 4.09; G 4.64; Q 2.68; I 2.34; T 5.04; H 3.46; N 3.63; L 2.96; A 3.16; D 3.47; E 3.61; S 4.66; C 3.86; K 3.43
Q11: G 3.38; R 2.94; C 3.94; K 2; A 3.11; V 3.14; D 4.92; Y 3.12; W 2.71; E 4.87; L 3.3; F 4; I 3.35; P 4.66; H 3.21; N 4.12; T 4.57; M 3.65; S 4.37
R6: M 2.35; Q 3.81; P 3.62; D 4.23; A 3.14; S 2.98; Y 2.16; N 2.64; K 2.92; W 2.17; F 2.26; T 3.23; L 2.34; G 2.56; V 3.09; I 2.37; E 3.27; H 2.55; C 1.84
L8: C 3.2; H 2.88; S 2.83; A 3.17; G 3.74; W 3.63; Q 3.72; T 3.24; R 2.02; I 3.03; Y 1.86; N 2.91; E 5; K 4.38; D 4.91; V 3.53; P 3.71; F 2.33; M 3.25
Q5: I 2.17; M 2.91; Y 1.97; K 2.39; G 2.26; L 2.07; D 2.77; T 2.39; E 3.16; C 1.76; F 1.87; V 2.19; W 2.07; P 3.39; N 2.63; S 4.29; H 2.71; A 2.51; R 1.74
L1: P 3.63; E 4.04; Q 3.21; Y 2.79; S 3.75; F 2.81; A 2.99; R 2.18; C 2.57; I 2.2; K 2.34; N 2.58; V 2.8; T 3.5; G 3.19; D 4.27; H 2.98; W 1.74; M 2.63
